# According to the supplement of paper PMC10598134:
# ± gives the standard deviation.
# Assay: collision cross section of modified peptide (TIMS, N2, iRT-aligned); higher = larger / more extended gas-phase ion
# How it was run: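 On a timsTOF Pro/HT (dda-PASEF, nitrogen, ~2.4 mbar), synthetic peptide pools were analysed after a 120-min nanoflow C18 separation at 60 °C and identified in MaxQuant. Three reference ions served for 1/K0 calibration, with run-wise alignment to the median iRT peptide deviation. Collision cross section comes from the Mason-Schamp equation, using the most abundant feature per charge state averaged over 1–3 technical replicates.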
# [1] = charge state: 2, modification: HexNAc (ST)
# [2] = charge state: 2, modification: Dimethyl (K)
# [3] = charge state: 3, modification: Dimethyl (K)
# [4] = charge state: 2, modification: Butyryl
# [5] = charge state: 2, modification: Methyl (K)
# [6] = charge state: 3, modification: Methyl (K)
# [7] = charge state: 3, modification: Butyryl
# [8] = charge state: 2, modification: hydroxyisobutyryl
# [9] = charge state: 2, modification: Propionyl
# [10] = charge state: 2, modification: Nitro (Y)
# [11] = charge state: 2, modification: Trimethyl (K)
# [12] = charge state: 3, modification: Trimethyl (K)
# [13] = charge state: 2, modification: Crotonyl
# [14] = charge state: 2, modification: Succinyl
# [15] = charge state: 3, modification: Succinyl
# [16] = charge state: 2, modification: Phospho (Y)
# [17] = charge state: 3, modification: Propionyl
# [18] = charge state: 2, modification: GlyGly (K)
# [19] = charge state: 3, modification: GlyGly (K)
# [20] = charge state: 2, modification: Formyl
# [21] = charge state: 2, modification: Glutarylation
# [22] = charge state: 3, modification: Glutarylation
# [23] = charge state: 3, modification: Crotonyl
# [24] = charge state: 2, modification: Methyl (R)
# [25] = charge state: 3, modification: Methyl (R)
# [26] = charge state: 3, modification: Formyl
# [27] = charge state: 2, modification: Acetyl (K)
sequence,measurement,setting,value
VTGGIFSVTK [_VTGGIFS(HexNAc (ST))VTK_],collision cross section,[1],361.54 ± 1.2 Å²
TSSEASVSSSVAK [_T(HexNAc (ST))SSEASVSSSVAK_],collision cross section,[1],394.41 ± 0.76 Å²
GTISAPGKVVTAAAQAK [_GTISAPGK(Dimethyl (K))VVTAAAQAK_],collision cross section,[2],470.82 ± 0.68 Å²
same,collision cross section,[3],493.04 ± 1.7 Å²
VNALKNLQVK [_VNALK(Butyryl)NLQVK_],collision cross section,[4],377.18 ± 0.8 Å²
GAEKTEVAEPR [_GAEK(Methyl (K))TEVAEPR_],collision cross section,[5],369.74 ± 0.22 Å²
same,collision cross section,[6],441.71 ± 4.3 Å²
ASDTSSETVFGKR [_ASDTSSETVFGK(Butyryl)R_],collision cross section,[4],403.53 ± 0.74 Å²
same,collision cross section,[7],479.86 ± 1.9 Å²
SGFGKFER [_SGFGK(hydroxyisobutyryl)FER_],collision cross section,[8],340.58 ± 1.9 Å²
STGLELETPSLVPVKK [_STGLELETPSLVPVK(Propionyl)K_],collision cross section,[9],435.15 Å²
LYLPVQNK [_LY(Nitro (Y))LPVQNK_],collision cross section,[10],340.84 ± 0.55 Å²
PANEKATDDYHYEK [_PANEK(Methyl (K))ATDDYHYEK_],collision cross section,[6],492.44 ± 0.72 Å²
VFIGNLNTLVVKK [_VFIGNLNTLVVK(Butyryl)K_],collision cross section,[4],414.54 ± 0.53 Å²
same,collision cross section,[7],490.12 Å²
ISALQGKLSK [_ISALQGK(Trimethyl (K))LSK_],collision cross section,[11],359.1 ± 0.6 Å²
same,collision cross section,[12],419.39 ± 1.8 Å²
DYSQPTAAATVQDIK [_DYSQPTAAAT(HexNAc (ST))VQDIK_],collision cross section,[1],449.73 ± 0.61 Å²
ASDTSSETVFGKR [_ASDTSSETVFGK(Dimethyl (K))R_],collision cross section,[2],409.3 ± 1.1 Å²
same,collision cross section,[3],469.84 ± 1.6 Å²
ASNAAVKLAESK [_ASNAAVK(Crotonyl)LAESK_],collision cross section,[13],375.99 ± 0.26 Å²
LEENHYNTYISK [_LEENHYNTY(Nitro (Y))ISK_],collision cross section,[10],425.11 ± 1.1 Å²
same,collision cross section,"charge state: 3, modification: Nitro (Y)",478.71 ± 0.24 Å²
LLIVSTTPYSEKDTK [_LLIVSTTPYSEK(Butyryl)DTK_],collision cross section,[4],459.06 ± 0.51 Å²
same,collision cross section,[7],488.4 ± 2.4 Å²
SSGPGGQNVNKVNSK [_SSGPGGQNVNK(Succinyl)VNSK_],collision cross section,[14],404.66 ± 0.55 Å²
same,collision cross section,[15],443.1 ± 4 Å²
DYSSGFGGKYGVQADR [_DYSSGFGGK(Propionyl)YGVQADR_],collision cross section,[9],432.72 Å²
VNALKNLQVK [_VNALK(Propionyl)NLQVK_],collision cross section,[9],372.11 ± 0.65 Å²
GGQGPPGPQGPIGYPGPR [_GGQGPPGPQGPIGYP(Hydroxyproline)GPR_],collision cross section,"charge state: 2, modification: Hydroxyproline",420.55 ± 2.1 Å²
same,collision cross section,"charge state: 3, modification: Hydroxyproline",474.06 ± 0.36 Å²
LSITGTYDLK [_LSITGTY(Phospho (Y))DLK_],collision cross section,[16],381.43 ± 0.65 Å²
ITESVAETAQTIKK [_ITESVAETAQTIK(Propionyl)K_],collision cross section,[9],421.06 ± 1.1 Å²
same,collision cross section,[17],515.07 Å²
IDLPAENSNSETIIITGKR [_IDLPAENSNSETIIITGK(Dimethyl (K))R_],collision cross section,[3],568.21 ± 0.55 Å²
KFGVLSDNFK [_K(hydroxyisobutyryl)FGVLSDNFK_],collision cross section,[8],378.39 ± 0.91 Å²
SGKFTQQDIDEAK [_SGK(Propionyl)FTQQDIDEAK_],collision cross section,[9],414.71 ± 0.97 Å²
DTGEKLTVAENEAETK [_DTGEK(Trimethyl (K))LTVAENEAETK_],collision cross section,[11],443.08 Å²
same,collision cross section,[12],490.09 ± 1.8 Å²
SITHSTVGSKGEK [_SITHSTVGSK(GlyGly (K))GEK_],collision cross section,[18],404.23 ± 1.4 Å²
same,collision cross section,[19],469.84 ± 1.3 Å²
SSFAYKDQNENR [_SSFAYK(Formyl)DQNENR_],collision cross section,[20],394.76 ± 0.75 Å²
YIEIYVQKVNPSR [_YIEIYVQK(Trimethyl (K))VNPSR_],collision cross section,[11],446.57 Å²
same,collision cross section,[12],499.16 ± 1.6 Å²
GGPGSTLSFVGKR [_GGPGSTLSFVGK(Succinyl)R_],collision cross section,[14],387.5 ± 0.76 Å²
same,collision cross section,[15],434.26 Å²
FHYQDQEFLK [_FHY(Phospho (Y))QDQEFLK_],collision cross section,[16],397.81 ± 0.64 Å²
same,collision cross section,"charge state: 3, modification: Phospho (Y)",447.23 ± 0.12 Å²
VIVGGSSEYK [_VIVGGSSEY(Phospho (Y))K_],collision cross section,[16],358.71 ± 0.065 Å²
IVSGKDYNVTANSK [_IVSGK(Gluratylation)DYNVTANSK_],collision cross section,[21],417.68 ± 1.5 Å²
same,collision cross section,[22],473.57 ± 2.4 Å²
AAQASDLEKIHLDEK [_AAQASDLEK(Gluratylation)IHLDEK_],collision cross section,[21],471.95 ± 1.5 Å²
same,collision cross section,[22],503.34 ± 1 Å²
YSSSSIPEPFGSRGSPR [_YSSSSIPEPFGSR(Citrullination (R))GSPR_],collision cross section,"charge state: 2, modification: Citrullination (R)",439.28 ± 0.2 Å²
same,collision cross section,"charge state: 3, modification: Citrullination (R)",523.88 Å²
DTPTSAGPNSFNKGK [_DTPTSAGPNSFNK(Trimethyl (K))GK_],collision cross section,[11],411.65 ± 1.2 Å²
same,collision cross section,[12],457.6 ± 1.8 Å²
VYPSSLSK [_VY(Nitro (Y))PSSLSK_],collision cross section,[10],327.32 ± 0.71 Å²
DAEAAEATAEGALKAEK [_DAEAAEATAEGALK(Crotonyl)AEK_],collision cross section,[13],474.87 ± 0.81 Å²
same,collision cross section,[23],545.42 ± 1.3 Å²
GFLQPPPLRQPR [_GFLQPPPLR(Methyl (R))QPR_],collision cross section,[24],399.75 Å²
same,collision cross section,[25],450.22 ± 3.5 Å²
FNALFAQGNYSEAAK [_FNALFAQGNY(Nitro (Y))SEAAK_],collision cross section,[10],433.45 ± 0.55 Å²
SSGPGGQNVNKVNSK [_SSGPGGQNVNK(Formyl)VNSK_],collision cross section,[20],398.34 ± 0.83 Å²
same,collision cross section,[26],435.41 ± 4.1 Å²
VLTANSNPSSPSAAKR [_VLTANSNPSSPSAAK(Acetyl (K))R_],collision cross section,[27],425 ± 2.5 Å²
same,collision cross section,"charge state: 3, modification: Acetyl (K)",527.55 ± 2.3 Å²
VFIGNLNTLVVKKK [_VFIGNLNTLVVK(Trimethyl (K))KK_],collision cross section,[12],488.61 ± 1.1 Å²
GTVPDDAVEALADSLGKK [_GTVPDDAVEALADSLGK(Crotonyl)K_],collision cross section,[13],456.44 ± 0.38 Å²
same,collision cross section,[23],536.14 Å²
ASEALLKQLK [_ASEALLK(Malonyl)QLK_],collision cross section,"charge state: 2, modification: Malonyl",374.73 ± 0.63 Å²
IQTKAGEATVK [_IQTK(Succinyl)AGEATVK_],collision cross section,[14],366.8 ± 0.24 Å²
TAGSSGVTAGRPRPTAR [_TAGSSGVTAGRPRPT(HexNAc (ST))AR_],collision cross section,"charge state: 3, modification: HexNAc (ST)",527.29 ± 0.18 Å²
IGAEVYHHLK [_IGAEVY(Phospho (Y))HHLK_],collision cross section,[16],385.73 ± 0.77 Å²
ANEKTESSSAQQVAVSR [_ANEK(Propionyl)TESSSAQQVAVSR_],collision cross section,[9],439.84 ± 1.6 Å²
same,collision cross section,[17],533.7 Å²
VEPIHAVVLPRGK [_VEPIHAVVLPR(Methyl (R))GK_],collision cross section,[24],424.97 ± 1 Å²
same,collision cross section,[25],489.93 ± 2.2 Å²
VLDSGAPIKIPVGPETLGR [_VLDSGAPIK(Butyryl)IPVGPETLGR_],collision cross section,[4],472.51 ± 0.49 Å²
same,collision cross section,[7],512.04 ± 1.8 Å²
VLTANSNPSSPSAAKR [_VLTANSNPSSPSAAK(Crotonyl)R_],collision cross section,[13],433.68 ± 1.1 Å²
same,collision cross section,[23],528.16 ± 1.7 Å²
GETASKLQSEISR [_GETASK(Propionyl)LQSEISR_],collision cross section,[9],387.23 ± 0.65 Å²
GSAPPGPVPEGSIR [_GS(HexNAc (ST))APPGPVPEGSIR_],collision cross section,[1],399.5 ± 0.63 Å²
ASNAAVKLAESK [_ASNAAVK(Methyl (K))LAESK_],collision cross section,[5],380.84 ± 0.65 Å²
same,collision cross section,[6],450.44 ± 4.8 Å²
TTGFYSGFSEVAEKR [_TTGFYSGFSEVAEK(Crotonyl)R_],collision cross section,[13],441.38 ± 0.77 Å²
ASAISIKLGSSK [_ASAISIK(Acetyl (K))LGSSK_],collision cross section,[27],368.59 ± 0.51 Å²
SKHLQEQLNELK [_SK(GlyGly (K))HLQEQLNELK_],collision cross section,[18],420.45 ± 1.4 Å²
same,collision cross section,[19],495.28 ± 2 Å²
LEEVTGKLQVAR [_LEEVTGK(hydroxyisobutyryl)LQVAR_],collision cross section,[8],399.92 ± 0.3 Å²
DSINFLDHINGKK [_DSINFLDHINGK(Formyl)K_],collision cross section,[26],468.04 Å²
ITASLCDLKSR [_ITASLCDLK(hydroxyisobutyryl)SR_],collision cross section,[8],395.08 ± 0.81 Å²
VDVEVPDVSLEGPEGKLK [_VDVEVPDVSLEGPEGK(GlyGly (K))LK_],collision cross section,[18],462.5 ± 0.94 Å²
same,collision cross section,[19],497.08 ± 1.1 Å²
ANLEKAQAELVGTADEATR [_ANLEK(hydroxyisobutyryl)AQAELVGTADEATR_],collision cross section,[8],473.77 ± 6.8 Å²
same,collision cross section,"charge state: 3, modification: hydroxyisobutyryl",579.16 ± 1.2 Å²
APPIDRSILPTAPR [_APPIDR(Methyl (R))SILPTAPR_],collision cross section,[25],489.12 ± 2.5 Å²
VETTVTSLKTK [_VETTVTSLK(Methyl (K))TK_],collision cross section,[5],381.5 ± 1.8 Å²
same,collision cross section,[6],455.24 ± 7.2 Å²
